Experimental data from patent US20180237502A1.

B1: murine monoclonal antibody 21B2 (antibody, V domains shown)
VH: EVQLQESGAELVRPGASVTLSCKTSGYTFTDYEMHWVKQTPVHGLEWIGAIDPETGGTAYNQKFKGKATLTADKSSSTAYMELSRLTSEDSAVYYCTGNYATDYWGQGTSVTVSS
VL: DIVMSQSPSSLAVSAGEKVTMSCKSSQSLFNSRSRKNYLAWYQLKPGQSPKLLIYWASTRESGVPDRFTGSGSGTDFTLTISSVQAEDLAVYYCKQSNYLWTFGGGTKLEIKR
B2: murine monoclonal antibody 2D8 (antibody, V domains shown)
VH: EVQLQESGGELVRPGTSVKISCKASGYTFTNFWLGWIKERPGHGLEWIGDIYPGGHYTNYNENFKGKATLTADTSSNTAYMQVSSLTSEDSAVYFCFTQYYDMDYWGQGTSVTVSS
VL: not shown
B3: murine monoclonal antibody 8C4 (antibody, V domains shown)
VH: EVQLQESGPELKKPGETVKISCKASGYTFTTYGMSWVKQAPGKGLKWMGRINTYSGVPTYADEFKGRFAFSLENSASTAYLQINNLKNEDTATYFCARGDGGHWFANWGQGTLVTVSA
VL: DIQMTQSPSSLSASLGGKVTITCKASQDINKNIAWYQHKPGKGPRLLIWYKSALQPGIPSRFSGSGSGRDYSFSISNLEPEDIATYSCLQYDNLPPTFGGGTKLEIKR
B4: murine monoclonal antibody 16G8 (antibody, V domains shown)
VH: EVQLQESGPGLVKPGASVKISCKASGYSFTGYYMNWVKQSPEKSLEWIGEINPSTGGTTYNQKFKAKATLTVDKSSSTAYMQLKSLTSEDSAVYYCVRYSHYYGSGSWYFDVWGTGTTVTVSS
VL: DIQMTQSPASLSASVGETVTITCRASENIYSNLAWYQQKQGKSPQLLVNAATNLADGVPSRFSGSGSGTQFSLKINSLQPEDFGSYYCQHFYVTPYMFGSGTKLEIKR
B5: murine monoclonal antibody 17C6 (antibody, V domains shown)
VH: EVQLQESGPGLVQPSQSLSITCTVSGFSLTSYGVHWVRQSPGKGLEWLGVIWSGGSTDYNAAFISRLSISKDNSKSQVFFKMNSLQADDTAIYYCARNWFDYDNYYSMDYWGQGTSVTVSS
VL: DIQMTQTTSSLSASLGDRVTISCRASQDISNYLNWYQQKPDGTVKLLIYYTSRLHSGVPSRFSGSGSGTDFSLTISNQEPEDIATYYCQQYSNLPWTFGGGTKLEIKR

Experiments:
Details in all cases: remark: other sources report otherwise
[1] = molecular target: EBOV GPddmuc (Ebola virus (EBOV)), Q05320
[2] = molecular target: MARV GPddmuc (Marburg virus (MARV)), P35253
[3] = molecular target: SUDV GPddmuc (Sudan virus (SUDV)), Q66814

| Binder | EC50 [1] [µg/mL] | EC50 [2] [µg/mL] | EC50 [3] [µg/mL] |
| --- | --- | --- | --- |
| B1 | > 10 | 0.0307 |  |
| B2 | 26.2 | 0.0573 | > 10 |
| B3 | 0.21 |  | 0.06 |
| B4 | 1.23 |  | 0.22 |
| B5 | 0.03 |  | 0.03 |
